EC50 data for two substances are collected here from article PMC11988251.

The assay addresses HuROR2-mFc. Put plainly: ELISA. For orientation: ELISA stands for enzyme-linked immunosorbent assay.

Usually EC50 stands for the midpoint of the concentration-response curve. In the case of BA302, the concentration giving a half-maximal response (EC50) is, setting by setting: (pH 6.0, 1.26 g/L sodium bicarbonate, 0.09 g/L L-lactic acid) 0.0119 µg/mL; (pH 7.4, 1.26 g/L sodium bicarbonate, 0.09 g/L L-lactic acid) “no meaningful EC50 could be calculated”.
BA3021: the EC50 is, setting by setting: (pH 6.0, 2.5 g/L sodium bicarbonate) 0.0563 µg/mL; (pH 7.4, 2.5 g/L sodium bicarbonate) “no meaningful EC50 could be calculated”.
